Test results taken from US20260201033A1 (LTZ THERAPEUTICS, published 2026).
Blank lines part the entries; values can stand above or below the binder they belong to.

What was measured:
[1] = molecular target: T1, CD79b on Ramos cells and on endogenous B cells of human PBMCs (human, UniProt P40259 29-229); experiment: cell-based or functional assay
T1 sequence (looked up): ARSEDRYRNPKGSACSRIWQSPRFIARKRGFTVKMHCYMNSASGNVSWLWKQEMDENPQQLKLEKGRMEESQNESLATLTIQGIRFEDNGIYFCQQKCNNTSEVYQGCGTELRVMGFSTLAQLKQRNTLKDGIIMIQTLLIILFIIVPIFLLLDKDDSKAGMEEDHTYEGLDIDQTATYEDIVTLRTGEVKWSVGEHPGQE

[2] = molecular target: T2, Human CLEC5A His Tag protein (ACROBiosystems, Cat #: CLA-H5243) (human, UniProt Q9NY25 28-188, limits assumed); experiment: ELISA, plate coated with human CLEC5A
T2 construct: Bought protein with a His tag; also called recombinant human CLEC5A protein
T2 sequence: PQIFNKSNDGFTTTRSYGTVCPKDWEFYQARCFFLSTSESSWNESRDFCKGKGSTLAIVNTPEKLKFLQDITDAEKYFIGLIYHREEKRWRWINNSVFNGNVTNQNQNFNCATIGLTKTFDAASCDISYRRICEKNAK
Protocol: Protein antigen was aspirated, and wells were washed 3 times with 400 μL of wash buffer (0.05% Tween® 20 in PBS) using a plate washer. Anti-CLEC5A antibodies were prepared as the primary antibody at 5 μg/mL and serially diluted 3-fold through 11 points (diluted concentrations) with reagent buffer (PBS+0.05% BSA). 100 μL of primary antibody was added to appropriate wells and incubated for 1 hour at room temperature. Primary antibody was aspirated, and wells were washed 3 times with 400 μL of wash buffer (0.05% Tween® 20 in PBS) using a plate washer. […] Secondary antibody was aspirated, and wells were washed 3 times with 400 μL of wash buffer (0.05% Tween® 20 in PBS) using a plate washer. […] 100 μL of Fisher 1N Sulfuric Acid (Cat #: SA212-2) stop solution was added to each well and the plate was read in a plate reader at 450 nm. For analysis, OD450 of each antibody was plotted using GraphPad Prism software (Version 9.4.1; GraphPad Software Inc.).

[3] = molecular target: T1, CD79b on Ramos cells and on endogenous …; experiment: cell-based or functional assay; remark: listed apart in the source
[4] = molecular target: T1, CD79b on Ramos cells and on endogenous …; experiment: cell-based or functional assay; remark: listed apart in the source
[5] = molecular target: T1, CD79b on Ramos cells and on endogenous …; experiment: cell-based or functional assay; remark: listed apart in the source

EC50 [2]: 0.12 nM
B2: h13E6, humanized anti-CLEC5A antibody (antibody, V domains shown)
VH: EQQLLESGGGLVQPGGSLRLSCAASGFSFSSSYWLCWVRQAPGKGLEWIACIYGGSSRGTYYASWAKGRFTISKDSSKNTVYLQMNSLRAEDTAVYFCASHTYTYPRFSPYFNLWGPGTLVTVSS
VL: EFVMTQSPATLSVSPGERATLSCQASEDIESSLAWYQQKPGQPPRLLIYDASDLESGVPARFSGSGSGTEYTLTISSLQSEDFAVYFCQSAYYTGSADNTFGGGTKVEIK
notes: also called humanized 13E6

EC50 [2]: 0.22 nM
B4: h7G10, humanized anti-CLEC5A antibody (antibody, V domains shown)
VH: EQQLVESGGGVVQPGRSLRLSCAASGFSFSSGYDMCWVRQAPGKGLEWIACIYGGRSDNVYYARWAKGRFTISKDSSTNTVFLQMNSLRAEDTAVYFCARDYLYRGYIGGGYGRSNLWGPGTLVTVSS
VL: DVQMTQSPSSVSASVGDRVTITCRASEDIENCLAWYQQKPGKPPKLLIYQASKLPSGVPSRFSGSGSGTDYTLTISSLQPEDFATYYCQNPDYMRNTDNLFGGGTKVEIK
notes: also called humanized 7G10

EC50 [2]: 0.33 nM
B6: h6A5, humanized anti-CLEC5A antibody (antibody, V domains shown)
VH: EQQLVESGGGLVQPGGSLRLSCSASGFSFSSSYYMCWVRQAPGKGLELIACIYSSSGRTWYATWVNGRFTISRDTSKNTVYLQMNSLRAEDTAVYFCARSYAGYGGYGYAYFNLWGPGTLVTVSS
VL: EIVMTQSPATLSVSPGERATLSCQASEDIYSSLAWYQQKPGQRPRLLIYDASTLASGVPARFSGSGSGTEYTLTISSLQSEDFAVYYCQNYYDSTGSGYGAAFGGGTKVEIK
notes: also called humanized 6A5

Further lines, the binder ahead of its results:

B1: CD79b/5C7 (2+2 A) Fc-silenced (bispecific antibody, human IgG1, kappa, L234A L235A)
heavy: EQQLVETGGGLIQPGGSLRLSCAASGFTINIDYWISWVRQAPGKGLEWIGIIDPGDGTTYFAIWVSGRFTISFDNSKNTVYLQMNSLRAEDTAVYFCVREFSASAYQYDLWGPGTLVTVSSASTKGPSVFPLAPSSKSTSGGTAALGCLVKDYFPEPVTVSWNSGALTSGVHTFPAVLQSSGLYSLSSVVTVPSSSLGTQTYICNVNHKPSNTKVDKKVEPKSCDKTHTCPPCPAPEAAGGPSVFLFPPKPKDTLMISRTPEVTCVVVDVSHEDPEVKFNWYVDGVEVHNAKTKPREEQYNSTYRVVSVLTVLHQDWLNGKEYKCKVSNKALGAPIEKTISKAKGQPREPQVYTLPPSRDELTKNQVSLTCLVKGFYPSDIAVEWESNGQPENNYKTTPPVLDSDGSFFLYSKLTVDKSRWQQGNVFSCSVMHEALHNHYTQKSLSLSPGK
light: ELVMTQSPATLSVSPGERATLSCRASEDIENYLAWYQQKPGQPPRLLIYRASTLSSGVPARFSGSGSGTEFTLTISSLQSEDFAVYYCQQGYRNSNVDNPFGGGTKVEIKRTVAAPSVFIFPPSDEQLKSGTASVVCLLNNFYPREAKVQWKVDNALQSGNSQESVTEQDSKDSTYSLSSTLTLSKADYEKHKVYACEVTHQGLSSPVTKSFNRGECGGGGSGGGGSGGGGSDIQMTQSPSSLSASVGDRVTITCQASESVDRNNRLAWFQQKPGKPPKLLIYTTSTLASGVPSRFSGSGSGTDFTLTISSLQPEDVATYYCAGYRGAHTDGDAFGGGTKVEIKGGGGSGGGGSGGGGSGGGGSEQQLVESGGGLVKPGGSLRLSCAASGFSFSRSSYMCWVRQAPGKGLEWIGCLSVGDGHTYYASWAKGRFTISKDSAKNSVYLQMNSLRAEDTAVYFCARAPSYSGDGGHGYDLWGPGTLVTVSS
IC50 (nM), Ramos cell killing by M0 macrophages, Donor 159 [1]: 0.002 nM | IC50 (nM), Ramos cell killing by M0 macrophages, Donor 161 [1]: 0.0006 nM

B3: h5C7, humanized anti-CLEC5A antibody (antibody, V domains shown)
VH: EQQLVESGGGLVKPGGSLRLSCAASGFSFSRSSYMCWVRQAPGKCLEWIGCLSVGDGHTYYASWAKGRFTISKDSAKNSVYLQMNSLRAEDTAVYFCARAPSYSGDGGHGYDLWGPGTLVTVSS
VL: DIQMTQSPSSLSASVGDRVTITCQASESVDRNNRLAWFQQKPGKPPKLLIYTTSTLASGVPSRFSGSGSGTDFTLTISSLQPEDVATYYCAGYRGAHTDGDAFGCGTKVEIK
notes: also called humanized 5C7
EC50 [2]: 0.44 nM

B5: h3A7, humanized anti-CLEC5A antibody (antibody, V domains shown)
VH: EQQLLESGGGLVQPGGSLRLSCAASGFSFSGMYWICWVRQAPGKGLEWIACIYTGSSTTGYASWAKGRFTISKDSSKNTVYLQMNSLRAEDTAVYFCASPYGDSSHYRGLNLWGPGTLVTVSS
VL: DVQMTQSPSSLSASVGDRVTITCQASQRINNYLSWFQQKPGKPPKLLIYGAATLASGVPSRFSGSGSGTDYTLTISSLQPEDVATYYCQCTYGIPSSNYGFGGGTKVEIK
notes: also called humanized 3A7
EC50 [2]: 0.47 nM

B7: CD79b/5C7 (2+1 A) Fc-optimized (bispecific antibody, human IgG1, kappa)
heavy 1: EQQLVETGGGLIQPGGSLRLSCAASGFTINIDYWISWVRQAPGKGLEWIGIIDPGDGTTYFAIWVSGRFTISFDNSKNTVYLQMNSLRAEDTAVYFCVREFSASAYQYDLWGPGTLVTVSSASTKGPSVFPLAPSSKSTSGGTAALGCLVKDYFPEPVTVSWNSGALTSGVHTFPAVLQSSGLYSLSSVVTVPSSSLGTQTYICNVNHKPSNTKVDKKVEPKSCDGGGGSGGGGSGGGGSEQQLVETGGGLIQPGGSLRLSCAASGFTINIDYWISWVRQAPGKGLEWIGIIDPGDGTTYFAIWVSGRFTISFDNSKNTVYLQMNSLRAEDTAVYFCVREFSASAYQYDLWGPGTLVTVSSASTKGPSVFPLAPSSKSTSGGTAALGCLVKDYFPEPVTVSWNSGALTSGVHTFPAVLQSSGLYSLSSVVTVPSSSLGTQTYICNVNHKPSNTKVDKKVEPKSCDKTHTCPPCPAPELLAGPSVFLFPPKPKDTLMISRTPEVTCVVVDVSHEDPEVKFNWYVDGVEVHNAKTKPREEQYNSTYRVVSVLTVLHQDWLNGKEYKCKVSNKALPLPEEKTISKAKGQPREPQVYTLPPSRDELTKNQVSLSCAVKGFYPSDIAVEWESNGQPENNYKTTPPVLDSDGSFFLVSKLTVDKSRWQQGNVFSCSVMHEALHNHYTQKSLSLSPGK
heavy 2: DIQMTQSPSSLSASVGDRVTITCQASESVDRNNRLAWFQQKPGKPPKLLIYTTSTLASGVPSRFSGSGSGTDFTLTISSLQPEDVATYYCAGYRGAHTDGDAFGGGTKVEIKGGGGSGGGGSGGGGSGGGGSEQQLVESGGGLVKPGGSLRLSCAASGFSFSRSSYMCWVRQAPGKGLEWIGCLSVGDGHTYYASWAKGRFTISKDSAKNSVYLQMNSLRAEDTAVYFCARAPSYSGDGGHGYDLWGPGTLVTVSSDKTHTCPPCPAPELLAGPSVFLFPPKPKDTLMISRTPEVTCVVVDVSHEDPEVKFNWYVDGVEVHNAKTKPREEQYNSTYRVVSVLTVLHQDWLNGKEYKCKVSNKALPLPEEKTISKAKGQPREPQVYTLPPSRDELTKNQVSLWCLVKGFYPSDIAVEWESNGQPENNYKTTPPVLDSDGSFFLYSKLTVDKSRWQQGNVFSCSVMHEALHNHYTQKSLSLSPGK
light: ELVMTQSPATLSVSPGERATLSCRASEDIENYLAWYQQKPGQPPRLLIYRASTLSSGVPARFSGSGSGTEFTLTISSLQSEDFAVYYCQQGYRNSNVDNPFGGGTKVEIKRTVAAPSVFIFPPSDEQLKSGTASVVCLLNNFYPREAKVQWKVDNALQSGNSQESVTEQDSKDSTYSLSSTLTLSKADYEKHKVYACEVTHQGLSSPVTKSFNRGEC
IC50 (nM), Ramos cell killing by PBMCs (test 2), Donor 234 [3]: 0.00472 nM | IC50 (nM), killing of endogenous B cells by PBMCs, Donor 234 [4]: 0.0178 nM | IC50 (nM), Ramos cell killing by M0 macrophages, Donor 022 [1]: 0.002 nM | IC50 (nM), Ramos cell killing by M2 macrophages, Donor 022 [5]: 0.002 nM

B8: CD79b/5C7 (1+1 A) Fc-optimized (bispecific antibody, human IgG1, kappa)
heavy 1: EQQLVETGGGLIQPGGSLRLSCAASGFTINIDYWISWVRQAPGKGLEWIGIIDPGDGTTYFAIWVSGRFTISFDNSKNTVYLQMNSLRAEDTAVYFCVREFSASAYQYDLWGPGTLVTVSSASTKGPSVFPLAPSSKSTSGGTAALGCLVKDYFPEPVTVSWNSGALTSGVHTFPAVLQSSGLYSLSSVVTVPSSSLGTQTYICNVNHKPSNTKVDKKVEPKSCDKTHTCPPCPAPELLAGPSVFLFPPKPKDTLMISRTPEVTCVVVDVSHEDPEVKFNWYVDGVEVHNAKTKPREEQYNSTYRVVSVLTVLHQDWLNGKEYKCKVSNKALPLPEEKTISKAKGQPREPQVYTLPPSRDELTKNQVSLSCAVKGFYPSDIAVEWESNGQPENNYKTTPPVLDSDGSFFLVSKLTVDKSRWQQGNVFSCSVMHEALHNHYTQKSLSLSPGK
heavy 2: EQQLVESGGGLVKPGGSLRLSCAASGFSFSRSSYMCWVRQAPGKGLEWIGCLSVGDGHTYYASWAKGRFTISKDSAKNSVYLQMNSLRAEDTAVYFCARAPSYSGDGGHGYDLWGPGTLVTVSSASTKGPSVFPLAPSSKSTSGGTAALGCLVKDYFPEPVTVSWNSGALTSGVHTFPAVLQSSGLYSLSSVVTVPSSSLGTQTYICNVNHKPSNTKVDKKVEPKSCDKTHTCPPCPAPELLAGPSVFLFPPKPKDTLMISRTPEVTCVVVDVSHEDPEVKFNWYVDGVEVHNAKTKPREEQYNSTYRVVSVLTVLHQDWLNGKEYKCKVSNKALPLPEEKTISKAKGQPREPQVYTLPPSRDELTKNQVSLWCLVKGFYPSDIAVEWESNGQPENNYKTTPPVLDSDGSFFLYSKLTVDKSRWQQGNVFSCSVMHEALHNHYTQKSLSLSPGK
light 1: ELVMTQSPATLSVSPGERATLSCRASEDIENYLAWYQQKPGQPPRLLIYRASTLSSGVPARFSGSGSGTEFTLTISSLQSEDFAVYYCQQGYRNSNVDNPFGGGTKVEIKRTVAAPSVFIFPPSDEQLKSGTASVVCLLNNFYPREAKVQWKVDNALQSGNSQESVTEQDSKDSTYSLSSTLTLSKADYEKHKVYACEVTHQGLSSPVTKSFNRGEC
light 2: DIQMTQSPSSLSASVGDRVTITCQASESVDRNNRLAWFQQKPGKPPKLLIYTTSTLASGVPSRFSGSGSGTDFTLTISSLQPEDVATYYCAGYRGAHTDGDAFGGGTKVEIKRTVAAPSVFIFPPSDEQLKSGTASVVCLLNNFYPREAKVQWKVDNALQSGNSQESVTEQDSKDSTYSLSSTLTLSKADYEKHKVYACEVTHQGLSSPVTKSFNRGEC
IC50 (nM), Ramos cell killing by PBMCs (test 2), Donor 234 [3]: 0.338 nM
